Patent US20240358826A1 (ORIONIS BIOSCIENCES, published 2024)

Biological target: human CD8 alpha (human, UniProt P01732 22-235)
Assay: cell-based or functional assay

Chain of human CD8 alpha (P01732 22-235): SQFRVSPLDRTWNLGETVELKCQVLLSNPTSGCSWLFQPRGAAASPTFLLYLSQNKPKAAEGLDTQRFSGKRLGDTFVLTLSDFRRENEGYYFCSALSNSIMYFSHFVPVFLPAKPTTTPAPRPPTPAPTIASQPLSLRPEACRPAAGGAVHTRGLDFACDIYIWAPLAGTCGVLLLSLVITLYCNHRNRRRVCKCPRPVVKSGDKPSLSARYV

EC50, CD8+ HekBlue-IL-1β cells (SEAP) [ng/mL] | Binder
~0.3 | IL1α delta 1-6_20GGS_hCD8 VHH 1CDA65_1GGS_9xhis (other) LSNVKYNFMRIIKYEFILNDALNQSIIRANDQYLTAAALHNLDEAVKFDMGAYKSSKDDAKITVILRISKTQLYVTAQDEDQPVLLKEMPEIPKTITGSETNLLFFWETHGTKNYFTSVAHPNLFIATKQDYWVCLAGGPPSITDFQILENQAGGSGGSGGSGGSGGSGGSGGSGGSGGSGGSGGSGGSGGSGGSGGSGGSGGSGGSGGSGGSQVQLQESGGGLVQPGGSLRLSCAASGSIFSINVMGWYRQTPGKERELVAKITNFGITSYADSAQGRFTISRGNAKNTVYLQMNSLKPEDTAVYYCNLDTTGWGPPPYQYWGQGTQVTVSSVDGGSHHHHHHHHH
~0.3 | hCD8 VHH 1CDA65_20GGS_IL1α delta 1-6_1GGS_9xhis (other) QVQLQESGGGLVQPGGSLRLSCAASGSIFSINVMGWYRQTPGKERELVAKITNFGITSYADSAQGRFTISRGNAKNTVYLQMNSLKPEDTAVYYCNLDTTGWGPPPYQYWGQGTQVTVSSVDGGSGGSGGSGGSGGSGGSGGSGGSGGSGGSGGSGGSGGSGGSGGSGGSGGSGGSGGSGGSLSNVKYNFMRIIKYEFILNDALNQSIIRANDQYLTAAALHNLDEAVKFDMGAYKSSKDDAKITVILRISKTQLYVTAQDEDQPVLLKEMPEIPKTITGSETNLLFFWETHGTKNYFTSVAHPNLFIATKQDYWVCLAGGPPSITDFQILENQAGGSHHHHHHHHH
